Source: patent US20250179210A1 (Merck KGaA, published 2025)

Key:
[1] = biological target: T1, recombinant human CEACAM5 A2-B2 domain (Syngene) (human, UniProt P06731 321-498); experiment: ELISA, 1 µg/ml coated antigen, antibody titrated; rhA2-B2 domain coated
T1 construct: also called rhA2-B2 domain
T1 sequence: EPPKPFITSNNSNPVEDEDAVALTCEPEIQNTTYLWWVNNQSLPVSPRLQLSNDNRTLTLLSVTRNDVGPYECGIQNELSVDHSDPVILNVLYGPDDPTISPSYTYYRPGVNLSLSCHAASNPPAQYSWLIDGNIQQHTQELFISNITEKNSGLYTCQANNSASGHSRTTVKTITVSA

[2] = biological target: T2, human CEACAM5 expressed on human cancer cell lines (MKN-45, NCI-H441, SK-CO-1, SNU-16, LS174T) (human, UniProt P06731 35-685); experiment: cellular binding on MKN45 cells (FIG. 2)
T2 construct: Endogenous protein on cells; also called MKN45 cell line expressing human CEACAM5; CEACAM5-positive cell lines
T2 sequence: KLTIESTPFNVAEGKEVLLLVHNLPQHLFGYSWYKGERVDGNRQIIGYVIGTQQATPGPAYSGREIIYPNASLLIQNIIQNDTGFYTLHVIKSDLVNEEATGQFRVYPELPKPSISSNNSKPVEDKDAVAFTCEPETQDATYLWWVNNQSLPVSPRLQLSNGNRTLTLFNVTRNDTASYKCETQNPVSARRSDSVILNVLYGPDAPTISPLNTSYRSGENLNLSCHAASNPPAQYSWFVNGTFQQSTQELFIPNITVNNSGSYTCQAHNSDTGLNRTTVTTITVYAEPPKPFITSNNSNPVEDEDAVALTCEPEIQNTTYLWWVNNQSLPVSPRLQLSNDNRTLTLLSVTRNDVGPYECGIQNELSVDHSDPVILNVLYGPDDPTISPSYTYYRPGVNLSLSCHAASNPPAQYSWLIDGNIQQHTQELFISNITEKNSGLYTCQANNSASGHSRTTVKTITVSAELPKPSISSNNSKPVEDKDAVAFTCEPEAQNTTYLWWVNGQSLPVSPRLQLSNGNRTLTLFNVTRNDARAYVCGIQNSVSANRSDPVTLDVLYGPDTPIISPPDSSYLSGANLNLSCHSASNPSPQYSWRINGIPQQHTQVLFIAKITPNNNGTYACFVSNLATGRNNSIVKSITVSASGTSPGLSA

[3] = biological target: T2, human CEACAM5 expressed on human cancer …; experiment: flow cytometry (MFI), titration on MKN-45 cells
Protocol: The antibody's ability to bind its target protein on cells was determined by titrating the antibody on cells that express the target (e.g. human CEACAM5) and measuring the fluorescence MFI of the cells. Model cells for antibody binding comparison were the MKN45 cell line expressing human CEACAM5 as well as a CHO cell line expressing mfCEACAM5. Titration was done with 10-point ×4 dilution, curve starting concentration 2000 nM in assay buffer (PBS×1 containing 1% BSA).

[4] = biological target: T3, recombinant human CEACAM5 A3-B3 domain (Syngene) (human, UniProt P06731 499-685); experiment: ELISA on coated antigen, antibody titrated
T3 construct: also called rhA3-B3
T3 sequence: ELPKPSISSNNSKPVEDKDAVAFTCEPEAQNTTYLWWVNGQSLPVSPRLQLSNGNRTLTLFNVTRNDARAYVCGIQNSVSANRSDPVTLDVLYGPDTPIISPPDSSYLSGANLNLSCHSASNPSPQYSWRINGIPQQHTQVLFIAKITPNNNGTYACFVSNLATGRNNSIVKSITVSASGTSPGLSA

[5] = biological target: T1, recombinant human CEACAM5 A2-B2 domain …; experiment: ELISA on coated antigen, antibody titrated
[6] = biological target: T4, recombinant human CEACAM5 N-A1-B1 domain (Syngene) (human, UniProt P06731 35-320); experiment: ELISA on coated antigen, antibody titrated
T4 construct: also called rhN-A1-B1
T4 sequence: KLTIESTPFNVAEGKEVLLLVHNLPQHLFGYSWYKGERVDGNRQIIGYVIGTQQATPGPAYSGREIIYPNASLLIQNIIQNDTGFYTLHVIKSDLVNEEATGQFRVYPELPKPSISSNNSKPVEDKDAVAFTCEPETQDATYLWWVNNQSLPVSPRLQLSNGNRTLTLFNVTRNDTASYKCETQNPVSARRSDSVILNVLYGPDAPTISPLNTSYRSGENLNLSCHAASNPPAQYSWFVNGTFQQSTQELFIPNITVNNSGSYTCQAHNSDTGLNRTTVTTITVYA

[7] = biological target: T5, BSA (bovine serum albumin) (bovine, UniProt P02769 25-607); experiment: ELISA on coated antigen, antibody titrated
T5 construct: Negative control; also called unrelated protein

[8] = biological target: T6, recombinant human (rh) CEACAM5 ECD (Syngene) (human, UniProt P06731 35-685); experiment: ELISA on coated antigen, antibody titrated
T6 sequence: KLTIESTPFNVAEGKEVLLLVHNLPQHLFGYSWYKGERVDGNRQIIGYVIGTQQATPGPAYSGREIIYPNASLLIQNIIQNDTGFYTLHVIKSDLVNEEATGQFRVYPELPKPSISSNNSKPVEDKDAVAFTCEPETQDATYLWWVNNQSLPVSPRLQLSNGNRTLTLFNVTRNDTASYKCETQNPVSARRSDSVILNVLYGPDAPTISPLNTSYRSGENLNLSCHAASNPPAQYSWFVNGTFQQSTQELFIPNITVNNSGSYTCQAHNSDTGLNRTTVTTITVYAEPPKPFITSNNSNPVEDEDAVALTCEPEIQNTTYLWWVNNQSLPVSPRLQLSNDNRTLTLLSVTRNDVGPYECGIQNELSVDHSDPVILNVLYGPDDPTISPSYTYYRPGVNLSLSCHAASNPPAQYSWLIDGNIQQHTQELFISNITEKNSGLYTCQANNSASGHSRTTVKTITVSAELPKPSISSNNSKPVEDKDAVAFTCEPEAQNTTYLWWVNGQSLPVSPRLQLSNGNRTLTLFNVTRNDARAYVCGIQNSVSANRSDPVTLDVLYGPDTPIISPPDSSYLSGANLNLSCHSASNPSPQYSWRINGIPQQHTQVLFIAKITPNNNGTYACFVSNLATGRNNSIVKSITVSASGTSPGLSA

[9] = biological target: T6, recombinant human (rh) CEACAM5 ECD …; experiment: ELISA, 1 µg/ml coated antigen, antibody titrated; rhCEACAM5 ECD coated

T5 sequence (P02769 25-607 limits assumed): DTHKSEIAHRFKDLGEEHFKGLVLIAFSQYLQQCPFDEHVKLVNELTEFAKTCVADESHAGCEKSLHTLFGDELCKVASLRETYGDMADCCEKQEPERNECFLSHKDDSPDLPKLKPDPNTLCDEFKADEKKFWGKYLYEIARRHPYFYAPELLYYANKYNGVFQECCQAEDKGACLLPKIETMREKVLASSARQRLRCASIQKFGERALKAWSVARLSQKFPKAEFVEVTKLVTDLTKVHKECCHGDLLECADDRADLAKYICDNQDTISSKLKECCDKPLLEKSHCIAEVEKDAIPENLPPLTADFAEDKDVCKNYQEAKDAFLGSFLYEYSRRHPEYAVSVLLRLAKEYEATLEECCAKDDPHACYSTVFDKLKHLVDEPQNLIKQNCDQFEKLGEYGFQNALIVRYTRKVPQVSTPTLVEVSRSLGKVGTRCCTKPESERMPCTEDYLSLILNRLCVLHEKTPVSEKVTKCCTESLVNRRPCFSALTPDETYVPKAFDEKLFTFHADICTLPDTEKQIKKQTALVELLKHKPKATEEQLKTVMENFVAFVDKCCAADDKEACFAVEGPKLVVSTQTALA

B1: mAb1 (final sequence-optimized anti-CEACAM5 antibody so8G4) (antibody, human IgG1, kappa)
heavy: EVQLQESGPGLVKPSQTLSLTCTVSDGSVSRGGYYLTWIRQHPGKGLEWIGYIYYSGSTYFNPSLRSRVTMSVDTSKNQFSLKLSSVTAADTAVYYCARGIAVAPFDYWGQGTLVTVSSASTKGPSVFPLAPSSKSTSGGTAALGCLVKDYFPEPVTVSWNSGALTSGVHTFPAVLQSSGLYSLSSVVTVPSSSLGTQTYICNVNHKPSNTKVDKRVEPKSCDKTHTCPPCPAPPVAGPSVFLFPPKPKDTLMISRTPEVTCVVVDVSHEDPEVKFNWYVDGVEVHNAKTKPREEQYNSTYRVVSVLTVLHQDWLNGKEYKCKVSNKALPSSIEKTISKAKGQPREPQVYTLPPSREEMTKNQVSLTCLVKGFYPSDIAVEWESNGQPENNYKTTPPVLDSDGSFFLYSKLTVDKSRWQQGNVFSCSVMHEALHNHYTQKSLSLSPG
light: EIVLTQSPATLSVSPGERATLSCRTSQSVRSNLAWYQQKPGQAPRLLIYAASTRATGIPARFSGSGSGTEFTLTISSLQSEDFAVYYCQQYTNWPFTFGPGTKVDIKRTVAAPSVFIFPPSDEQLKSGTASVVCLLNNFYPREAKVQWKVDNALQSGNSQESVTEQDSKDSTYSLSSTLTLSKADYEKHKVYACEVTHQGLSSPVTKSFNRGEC
notes: Labelled with pHrodo in the internalization assay
[1]
  EC50: 0.167 nM
[2]
  EC50: 8.3 nM
[3]
  EC50: 10.6 nM
[4]
  binding result: no binding (tested: 4000 pM)
[5]
  EC50 (read off the curve): ~200 pM
[6]
  binding result: no binding (tested: 4000 pM)
[7]
  binding result: no binding (tested: 4000 pM)
[8]
  EC50 (read off the curve): ~200 pM
[9]
  EC50: 0.153 nM
